B1: Azoarcus group I ribozyme (parent)
chain: GUGCCUUGCGCCGGGAAACCACGCAAGGGAUGGUGUCAAAUUCGGCGAAACCUAAGCGCCCGCCCGGGCGUAUGGCAACGCCGAGCCAAGCUUCGGCGCCUGCGCCGAUGAAGGUGUAGAGACUAGACGGCACCCACCUAAGGCAAACGCUAUGGUGAAGGCAUAGUCCAGGGAGUGGCGAAAGUCACACAAACCGG

Variants of: B1
Experiment: reverse-splicing fitness (ratio to wild type); higher = more active; in vitro selection; Mg2+ level not given
Summary of the method: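 An in vitro group I ribozyme library with randomized positions was T7-transcribed and gel-purified. In triplicate, 10 pmol RNA in EPPS pH 7.5 was reacted with 50 pmoles of a 30-nt RNA substrate for 1 h at 37 °C across several added MgCl2 levels (1–48 mM), then stopped with EDTA. Products were reverse transcribed from a substrate-complementary primer, PCR-amplified and sequenced (HiSeq 4000). Fitness is a variant's read proportion after selection over that before, normalised to wild type.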

Variant | reverse-splicing fitness
A120C C150G C169U U176C | 0.0388
A120C C150G C169U U176A | 0.0117
A120C C150G C169U U176G | 0.00544
A120C A145U U176G | 0.318
A120C A145U U176A | 0.726
A120C A145U U176C | 0.7
A120C C150U C169U U176C | 0.143
A120C C150U C169U U176A | 0.118
A120C C150U C169U U176G | 0.0106
A120C A145G C150U C169U U176A | 0.125
A120C A145G C150U C169U U176C | 0.186
A120C A145G C150U C169U U176G | 0.0092
A120C U176A | 0.663
A120C U176C | 0.714
A120C U176G | 0.244
A120G A145C C150U C169U U176C | 0.0977
A120G A145C C150U C169U U176A | 0.0904
A120G A145C C150U C169U U176G | 0.00915
A120G A145C C150G C169G U176A | 0.0244
A120G A145C C150G C169G U176C | 0.0117
A120G A145C C150G C169G U176G | 0.00456
A120C A145U | 0.886
A120G A145U C150G C169G U176C | 0.011
A120G A145U C150G C169G U176A | 0.024

Variant | reverse-splicing fitness
A120G A145U C150G C169G U176G | 0.00487
A120C A145G C169A U176C | 0.024
A120C A145G C169A U176A | 0.0215
A120C A145G C169A U176G | 0.00471
A120G A145U C150U C169A U176A | 0.08
A120G A145U C150U C169A U176G | 0.00609
A120G A145U C150U C169A U176C | 0.14
A120C C169U U176C | 0.174
A120C C169U U176A | 0.155
A120C C169U U176G | 0.0174
A120C C150A C169A U176A | 0.0193
A120C C150A C169A U176G | 0.00451
A120C C150A C169A U176C | 0.011
A120G A145G C150U C169G U176C | 0.216
A120G A145G C150U C169G U176G | 0.00838
A120G A145G C150U C169G U176A | 0.149
A120C A145G C169G U176A | 0.0155
A120C A145G C169G U176G | 0.00382
A120C A145G C169G U176C | 0.022
A120G A145U C150U U176A | 0.155
A120G A145U C150U U176C | 0.184
A120C A145U C169G U176G | 0.0038
A120C A145U C169G U176A | 0.00826
A120C A145U C169G U176C | 0.0112

Variant | reverse-splicing fitness
A120G A145C C150A C169A | 0.029
A120G A145C C150A C169G | 0.0475
A120G A145C C150A C169U | 0.0377
A120G A145U C150A C169A | 0.0459
A120G A145U C150A C169G | 0.0841
A120G A145U C150A C169U | 0.0677
A120G A145U C150U | 0.384
A120G A145U C150G | 0.07
A120G A145U C150A | 0.0603
A120C A145G C150U C169A | 0.0324
A120C A145G C150U C169G | 0.0232
A120C A145G C150U C169U | 0.432
A120G A145G C169A U176A | 0.114
A120G A145G C169A U176G | 0.00693
A120G A145G C169A U176C | 0.185
A120G A145G C150A C169U U176G | 0.00665
A120G A145G C150A C169U U176A | 0.0726
A120G A145G C150A C169U U176C | 0.0707
A120C A145U C150U C169G U176G | 0.00463
A120C A145U C150U C169G U176C | 0.0117
A120C A145U C150U C169G U176A | 0.0111
A120C C150A U176C | 0.195
A120C C150A U176A | 0.184
A120C C150A U176G | 0.0764

Variant | reverse-splicing fitness
A120C A145U C150U C169A U176G | 0.00474
A120C A145U C150U C169A U176A | 0.0137
A120C A145U C150U C169A U176C | 0.0111
A120C A145U C169A U176C | 0.0127
A120C A145U C169A U176A | 0.01
A120C A145U C169A U176G | 0.00466
A120G A145U C150A C169G U176G | 0.00649
A120G A145U C150A C169G U176C | 0.061
A120G A145U C150A C169G U176A | 0.0455
A120G A145G C150U C169G | 0.502
A120G A145G C150U C169A | 0.369
A120G A145G C150U C169U | 0.37
A120G A145C C150A C169G U176C | 0.0391
A120G A145C C150A C169G U176A | 0.0447
A120G A145C C150A C169G U176G | 0.00572
A120G A145G C150A C169G U176C | 0.0972
A120G A145G C150A C169G U176A | 0.0656
A120G A145G C150A C169G U176G | 0.00637
A120C C150U U176G | 0.181
A120C C150U U176C | 0.596
A120C C150U U176A | 0.643
A120G A145C C150U C169G U176G | 0.00726
A120G A145C C150U C169G U176C | 0.107
A120G A145C C150U C169G U176A | 0.102

Variant | reverse-splicing fitness
A120G A145U C150U C169U | 0.33
A120G A145U C150U C169G | 0.487
A120G A145U C150U C169A | 0.33
A120G A145C C150A C169U U176C | 0.0294
A120G A145C C150A C169U U176A | 0.0398
A120G A145C C150A C169U U176G | 0.00621
A120C C150U C169G U176A | 0.0153
A120C C150U C169G U176C | 0.0142
A120C C150U C169G U176G | 0.00427
A120G A145C C150G C169U | 0.0909
A120G A145C C150G C169G | 0.114
A120G A145C C150G C169A | 0.0659
A120G A145G C169U U176C | 0.199
A120G A145G C169U U176A | 0.172
A120G A145G C169U U176G | 0.0155
A120G A145C C169G U176C | 0.235
A120G A145C C169G U176A | 0.202
A120G A145C C169G U176G | 0.0119
A120G A145U C150G C169U U176C | 0.0556
A120G A145U C150G C169U U176A | 0.0333
A120G A145U C150G C169U U176G | 0.00602
A120G A145G U176G | 0.0157
A120G A145G U176C | 0.246
A120G A145G U176A | 0.193

Variant | reverse-splicing fitness
A120G A145U C150G C169A | 0.0517
A120G A145U C150G C169G | 0.0994
A120G A145U C150G C169U | 0.0748
A120G A145U C150A U176A | 0.0378
A120G A145U C150A U176C | 0.0519
A120G A145U C150A U176G | 0.00673
A120C C150G C169A U176G | 0.00553
A120C C150G C169A U176A | 0.0108
A120C C150G C169A U176C | 0.00991
A120G A145G C150U C169U U176C | 0.175
A120G A145G C150U C169U U176G | 0.0096
A120G A145G C150U C169U U176A | 0.145
A120C A145U C150G C169U U176A | 0.0184
A120C A145U C150G C169U U176G | 0.00515
A120C A145U C150G C169U U176C | 0.0535
A120C C150G C169U | 0.0809
A120C C150G C169G | 0.00811
A120C C150G C169A | 0.0115
A120G A145C C169U U176C | 0.19
A120G A145C C169U U176G | 0.0181
A120G A145C C169U U176A | 0.181
A120C A145U C150U C169U U176C | 0.16
A120C A145U C150U C169U U176G | 0.0113
A120C A145U C150U C169U U176A | 0.131

Variant | reverse-splicing fitness
A120C C150A C169U U176G | 0.00663
A120C C150A C169U U176A | 0.0533
A120C C150A C169U U176C | 0.0627
A120G A145C C150A U176C | 0.0279
A120G A145C C150A U176G | 0.00611
A120G A145C C150A U176A | 0.027
A120C C150U C169A U176A | 0.0206
A120C C150U C169A U176G | 0.00428
A120C C150U C169A U176C | 0.017
A120C A145U C169G | 0.0257
A120C A145U C169A | 0.032
A120C A145U C169U | 0.441
A120G A145C C150A C169A U176C | 0.0164
A120G A145C C150A C169A U176A | 0.0162
A120G A145C C150A C169A U176G | 0.00472
A120C A145U C150U U176C | 0.562
A120C A145U C150U U176G | 0.2
A120C A145U C150U U176A | 0.652
A120G A145C C150U C169U | 0.153
A120G A145C C150U C169G | 0.213
A120G A145C C150U C169A | 0.123
A120G A145U C150A C169A U176A | 0.0229
A120G A145U C150A C169A U176G | 0.00487

Reference: the RNAGym collection of RNA variant scans (doi:10.1093/molbev/msab373)
